# Reference: PMC4070737
# Molecular target: T1, full-length human EB1 (human), Q15691
# T1 chain: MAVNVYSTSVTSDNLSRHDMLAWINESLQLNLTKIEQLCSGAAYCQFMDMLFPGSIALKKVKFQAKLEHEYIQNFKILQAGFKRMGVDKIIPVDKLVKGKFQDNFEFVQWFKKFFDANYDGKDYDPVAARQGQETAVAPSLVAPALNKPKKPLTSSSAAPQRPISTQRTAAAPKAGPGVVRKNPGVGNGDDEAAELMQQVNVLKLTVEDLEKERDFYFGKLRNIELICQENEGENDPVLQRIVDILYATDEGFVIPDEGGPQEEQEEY
# Experiment: AUC
# Details: remark: other sources report otherwise
binder,measurement,value
"full-length human EB1, Q15691 1-268 (natural protein) MAVNVYSTSVTSDNLSRHDMLAWINESLQLNLTKIEQLCSGAAYCQFMDMLFPGSIALKKVKFQAKLEHEYIQNFKILQAGFKRMGVDKIIPVDKLVKGKFQDNFEFVQWFKKFFDANYDGKDYDPVAARQGQETAVAPSLVAPALNKPKKPLTSSSAAPQRPISTQRTAAAPKAGPGVVRKNPGVGNGDDEAAELMQQVNVLKLTVEDLEKERDFYFGKLRNIELICQENEGENDPVLQRIVDILYATDEGFVIPDEGGPQEEQEEY",Kd,88.5 nM
same,stoichiometry N,2
